Reference: US20240270846A1 (published 2024)

B1: CE115HA000/GLS3000 Y96L one-arm antibody (antibody, human IgG1, kappa, L234A L235A, N297A, name in Kabat numbering)
heavy: QVQLVESGGGVVQPGRSLRLSCAASGFTFSNAWMHWVRQAPGKGLEWVAQIKAKSNNYATYYAESVKGRFTISRDDSKNSLYLQMNSLKTEDTAVYYCRYVHYGAYYGVDAWGQGTTVTVSSASTKGPSVFPLAPSSKSTSGGTAALGCLVKDYFPEPVTVSWNSGALTSGVHTFPAVLQSSGLYSLSSVVTVPSSSLGTQTYICNVNHKPSNTKVDKKVEPKSCDKTHTCPPCPAPEAAGGPSVFLFPPKPKDTLMISRTPEVTCVVVDVSHEDPEVKFNWYVDGVEVHNAKTKPREEQYASTYRVVSVLTVLHQDWLNGKEYKCKVSNKALPAPIEKTISKAKGQPREPQVYTLPPSRCELTKNQVSLSCAVKGFYPSDIAVEWESNGQPENNYKTTPPVLDSDGSFFLVSKLTVDKSRWQQGNVFSCSVMHEALHNHYTQKSLSLSPDYKDDDDK
chain: EPKSSDKTHTCPPCPAPELLGGPSVFLFPPKPKDTLMISRTPEVTCVVVDVSHEDPEVKFNWYVDGVEVHNAKTKPREEQYNSTYRVVSVLTVLHQDWLNGKEYKCKVSNKALPAPIEKTISKAKGQPREPQVCTLPPSRDELTKNQVSLWCLVKGFYPSDIAVEWESNGQPENNYKTTPPVLDSDGSFFLYSKLTVDKSRWQQGNVFSCSVMHEALHNRYTQKSLSLSP
light: DIVMTQSPLSLPVTPGEPASISCRSSQSLVHSNRNTYLHWYQQKPGQAPRLLIYKVSNRFSGVPDRFSGSGSGTDFTLKISRVEAEDVGVYYCGQGTQVPLTFGQGTKLEIKRTVAAPSVFIFPPSDEQLKSGTASVVCLLNNFYPREAKVQWKVDNALQSGNSQESVTEQDSKDSTYSLSSTLTLSKADYEKHKVYACEVTHQGLSSPVTKSFNRGEC
notes: one-arm IgG1
B2: CE115HA000/GLS3000 Y96H one-arm antibody (antibody, human IgG1, kappa, L234A L235A, N297A, name in Kabat numbering)
heavy: QVQLVESGGGVVQPGRSLRLSCAASGFTFSNAWMHWVRQAPGKGLEWVAQIKAKSNNYATYYAESVKGRFTISRDDSKNSLYLQMNSLKTEDTAVYYCRYVHYGAYYGVDAWGQGTTVTVSSASTKGPSVFPLAPSSKSTSGGTAALGCLVKDYFPEPVTVSWNSGALTSGVHTFPAVLQSSGLYSLSSVVTVPSSSLGTQTYICNVNHKPSNTKVDKKVEPKSCDKTHTCPPCPAPEAAGGPSVFLFPPKPKDTLMISRTPEVTCVVVDVSHEDPEVKFNWYVDGVEVHNAKTKPREEQYASTYRVVSVLTVLHQDWLNGKEYKCKVSNKALPAPIEKTISKAKGQPREPQVYTLPPSRCELTKNQVSLSCAVKGFYPSDIAVEWESNGQPENNYKTTPPVLDSDGSFFLVSKLTVDKSRWQQGNVFSCSVMHEALHNHYTQKSLSLSPDYKDDDDK
chain: EPKSSDKTHTCPPCPAPELLGGPSVFLFPPKPKDTLMISRTPEVTCVVVDVSHEDPEVKFNWYVDGVEVHNAKTKPREEQYNSTYRVVSVLTVLHQDWLNGKEYKCKVSNKALPAPIEKTISKAKGQPREPQVCTLPPSRDELTKNQVSLWCLVKGFYPSDIAVEWESNGQPENNYKTTPPVLDSDGSFFLYSKLTVDKSRWQQGNVFSCSVMHEALHNRYTQKSLSLSP
light: DIVMTQSPLSLPVTPGEPASISCRSSQSLVHSNRNTYLHWYQQKPGQAPRLLIYKVSNRFSGVPDRFSGSGSGTDFTLKISRVEAEDVGVYYCGQGTQVPHTFGQGTKLEIKRTVAAPSVFIFPPSDEQLKSGTASVVCLLNNFYPREAKVQWKVDNALQSGNSQESVTEQDSKDSTYSLSSTLTLSKADYEKHKVYACEVTHQGLSSPVTKSFNRGEC
notes: one-arm IgG1
B3: CE115HA000/GLS3000 Y96F one-arm antibody (antibody, human IgG1, kappa, L234A L235A, N297A, name in Kabat numbering)
heavy: QVQLVESGGGVVQPGRSLRLSCAASGFTFSNAWMHWVRQAPGKGLEWVAQIKAKSNNYATYYAESVKGRFTISRDDSKNSLYLQMNSLKTEDTAVYYCRYVHYGAYYGVDAWGQGTTVTVSSASTKGPSVFPLAPSSKSTSGGTAALGCLVKDYFPEPVTVSWNSGALTSGVHTFPAVLQSSGLYSLSSVVTVPSSSLGTQTYICNVNHKPSNTKVDKKVEPKSCDKTHTCPPCPAPEAAGGPSVFLFPPKPKDTLMISRTPEVTCVVVDVSHEDPEVKFNWYVDGVEVHNAKTKPREEQYASTYRVVSVLTVLHQDWLNGKEYKCKVSNKALPAPIEKTISKAKGQPREPQVYTLPPSRCELTKNQVSLSCAVKGFYPSDIAVEWESNGQPENNYKTTPPVLDSDGSFFLVSKLTVDKSRWQQGNVFSCSVMHEALHNHYTQKSLSLSPDYKDDDDK
chain: EPKSSDKTHTCPPCPAPELLGGPSVFLFPPKPKDTLMISRTPEVTCVVVDVSHEDPEVKFNWYVDGVEVHNAKTKPREEQYNSTYRVVSVLTVLHQDWLNGKEYKCKVSNKALPAPIEKTISKAKGQPREPQVCTLPPSRDELTKNQVSLWCLVKGFYPSDIAVEWESNGQPENNYKTTPPVLDSDGSFFLYSKLTVDKSRWQQGNVFSCSVMHEALHNRYTQKSLSLSP
light: DIVMTQSPLSLPVTPGEPASISCRSSQSLVHSNRNTYLHWYQQKPGQAPRLLIYKVSNRFSGVPDRFSGSGSGTDFTLKISRVEAEDVGVYYCGQGTQVPFTFGQGTKLEIKRTVAAPSVFIFPPSDEQLKSGTASVVCLLNNFYPREAKVQWKVDNALQSGNSQESVTEQDSKDSTYSLSSTLTLSKADYEKHKVYACEVTHQGLSSPVTKSFNRGEC
notes: one-arm IgG1
B4: GLS3000 H27dA one-arm antibody (H chain CE115HA000) (antibody, human IgG1, kappa, L234A L235A, N297A, name in Kabat numbering)
heavy: QVQLVESGGGVVQPGRSLRLSCAASGFTFSNAWMHWVRQAPGKGLEWVAQIKAKSNNYATYYAESVKGRFTISRDDSKNSLYLQMNSLKTEDTAVYYCRYVHYGAYYGVDAWGQGTTVTVSSASTKGPSVFPLAPSSKSTSGGTAALGCLVKDYFPEPVTVSWNSGALTSGVHTFPAVLQSSGLYSLSSVVTVPSSSLGTQTYICNVNHKPSNTKVDKKVEPKSCDKTHTCPPCPAPEAAGGPSVFLFPPKPKDTLMISRTPEVTCVVVDVSHEDPEVKFNWYVDGVEVHNAKTKPREEQYASTYRVVSVLTVLHQDWLNGKEYKCKVSNKALPAPIEKTISKAKGQPREPQVYTLPPSRCELTKNQVSLSCAVKGFYPSDIAVEWESNGQPENNYKTTPPVLDSDGSFFLVSKLTVDKSRWQQGNVFSCSVMHEALHNHYTQKSLSLSPDYKDDDDK
chain: EPKSSDKTHTCPPCPAPELLGGPSVFLFPPKPKDTLMISRTPEVTCVVVDVSHEDPEVKFNWYVDGVEVHNAKTKPREEQYNSTYRVVSVLTVLHQDWLNGKEYKCKVSNKALPAPIEKTISKAKGQPREPQVCTLPPSRDELTKNQVSLWCLVKGFYPSDIAVEWESNGQPENNYKTTPPVLDSDGSFFLYSKLTVDKSRWQQGNVFSCSVMHEALHNRYTQKSLSLSP
light: DIVMTQSPLSLPVTPGEPASISCRSSQSLVASNRNTYLHWYQQKPGQAPRLLIYKVSNRFSGVPDRFSGSGSGTDFTLKISRVEAEDVGVYYCGQGTQVPYTFGQGTKLEIKRTVAAPSVFIFPPSDEQLKSGTASVVCLLNNFYPREAKVQWKVDNALQSGNSQESVTEQDSKDSTYSLSSTLTLSKADYEKHKVYACEVTHQGLSSPVTKSFNRGEC
notes: one-arm antibody
B5: GLS3000 F55D one-arm antibody (H chain CE115HA000) (antibody, human IgG1, kappa, L234A L235A, N297A, name in Kabat numbering)
heavy: QVQLVESGGGVVQPGRSLRLSCAASGFTFSNAWMHWVRQAPGKGLEWVAQIKAKSNNYATYYAESVKGRFTISRDDSKNSLYLQMNSLKTEDTAVYYCRYVHYGAYYGVDAWGQGTTVTVSSASTKGPSVFPLAPSSKSTSGGTAALGCLVKDYFPEPVTVSWNSGALTSGVHTFPAVLQSSGLYSLSSVVTVPSSSLGTQTYICNVNHKPSNTKVDKKVEPKSCDKTHTCPPCPAPEAAGGPSVFLFPPKPKDTLMISRTPEVTCVVVDVSHEDPEVKFNWYVDGVEVHNAKTKPREEQYASTYRVVSVLTVLHQDWLNGKEYKCKVSNKALPAPIEKTISKAKGQPREPQVYTLPPSRCELTKNQVSLSCAVKGFYPSDIAVEWESNGQPENNYKTTPPVLDSDGSFFLVSKLTVDKSRWQQGNVFSCSVMHEALHNHYTQKSLSLSPDYKDDDDK
chain: EPKSSDKTHTCPPCPAPELLGGPSVFLFPPKPKDTLMISRTPEVTCVVVDVSHEDPEVKFNWYVDGVEVHNAKTKPREEQYNSTYRVVSVLTVLHQDWLNGKEYKCKVSNKALPAPIEKTISKAKGQPREPQVCTLPPSRDELTKNQVSLWCLVKGFYPSDIAVEWESNGQPENNYKTTPPVLDSDGSFFLYSKLTVDKSRWQQGNVFSCSVMHEALHNRYTQKSLSLSP
light: DIVMTQSPLSLPVTPGEPASISCRSSQSLVHSNRNTYLHWYQQKPGQAPRLLIYKVSNRDSGVPDRFSGSGSGTDFTLKISRVEAEDVGVYYCGQGTQVPYTFGQGTKLEIKRTVAAPSVFIFPPSDEQLKSGTASVVCLLNNFYPREAKVQWKVDNALQSGNSQESVTEQDSKDSTYSLSSTLTLSKADYEKHKVYACEVTHQGLSSPVTKSFNRGEC
notes: one-arm antibody
B6: GLS3000 F55A one-arm antibody (H chain CE115HA000) (antibody, human IgG1, kappa, L234A L235A, N297A, name in Kabat numbering)
heavy: QVQLVESGGGVVQPGRSLRLSCAASGFTFSNAWMHWVRQAPGKGLEWVAQIKAKSNNYATYYAESVKGRFTISRDDSKNSLYLQMNSLKTEDTAVYYCRYVHYGAYYGVDAWGQGTTVTVSSASTKGPSVFPLAPSSKSTSGGTAALGCLVKDYFPEPVTVSWNSGALTSGVHTFPAVLQSSGLYSLSSVVTVPSSSLGTQTYICNVNHKPSNTKVDKKVEPKSCDKTHTCPPCPAPEAAGGPSVFLFPPKPKDTLMISRTPEVTCVVVDVSHEDPEVKFNWYVDGVEVHNAKTKPREEQYASTYRVVSVLTVLHQDWLNGKEYKCKVSNKALPAPIEKTISKAKGQPREPQVYTLPPSRCELTKNQVSLSCAVKGFYPSDIAVEWESNGQPENNYKTTPPVLDSDGSFFLVSKLTVDKSRWQQGNVFSCSVMHEALHNHYTQKSLSLSPDYKDDDDK
chain: EPKSSDKTHTCPPCPAPELLGGPSVFLFPPKPKDTLMISRTPEVTCVVVDVSHEDPEVKFNWYVDGVEVHNAKTKPREEQYNSTYRVVSVLTVLHQDWLNGKEYKCKVSNKALPAPIEKTISKAKGQPREPQVCTLPPSRDELTKNQVSLWCLVKGFYPSDIAVEWESNGQPENNYKTTPPVLDSDGSFFLYSKLTVDKSRWQQGNVFSCSVMHEALHNRYTQKSLSLSP
light: DIVMTQSPLSLPVTPGEPASISCRSSQSLVHSNRNTYLHWYQQKPGQAPRLLIYKVSNRASGVPDRFSGSGSGTDFTLKISRVEAEDVGVYYCGQGTQVPYTFGQGTKLEIKRTVAAPSVFIFPPSDEQLKSGTASVVCLLNNFYPREAKVQWKVDNALQSGNSQESVTEQDSKDSTYSLSSTLTLSKADYEKHKVYACEVTHQGLSSPVTKSFNRGEC
notes: one-arm antibody

Target: T1, CD3 epsilon homodimer protein (UniProt P07766 23-126)
T1 construct: also called CD3 (CD3 epsilon)
Experiment: SPR (Biacore T200), CD3e homodimer on CM4 chip, antibody as analyte; KD ratio vs unaltered GLS3000;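 further: CD3 epsilon homodimer amine-coupled to the sensor surface, antibodies injected as analyte at 25 °C with HBS-EP+ running buffer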
T1 sequence (P07766 23-126): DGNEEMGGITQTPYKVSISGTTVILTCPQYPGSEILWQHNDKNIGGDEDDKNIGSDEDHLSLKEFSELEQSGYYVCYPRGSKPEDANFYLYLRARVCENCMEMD

Question: Which “KD ratio to GLS3000” value does the source give for B1 here?
Answer: 1.84 ratio

Question: With B2 as the binder, how does the “KD ratio to GLS3000” value read?
Answer: 80.3 ratio

Question: With B3 as the binder, how does the “KD ratio to GLS3000” value read?
Answer: 0.86 ratio

Target: T2, CD3 epsilon homodimer protein (UniProt P07766 23-126)
T2 construct: also called CD3 (CD3 epsilon)
Experiment: SPR, CD3e homodimer on chip;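 further: surface plasmon resonance at 25 degrees C, antibodies flowed as analyte over CD3 epsilon homodimer amine-coupled to a CM4 chip, running buffer HBS-EP+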
T2 sequence (P07766 23-126): as above
Method: An appropriate amount of CD3 epsilon homodimer protein was immobilized onto Sensor chip CM4 (GE Healthcare Japan Corp.) by the amine coupling method. Then, the antibody having an appropriate concentration was injected thereto as an analyte and allowed to interact with the CD3 epsilon homodimer protein on the sensor chip. Then, the sensor chip was regenerated by the injection of 10 mmol/L glycine-HCl (pH 1.5). The assay was conducted at 25 degrees C., and HBS-EP+(GE Healthcare Japan Corp.) was used as a running buffer. […] Each parameter was calculated using Biacore T200 Evaluation Software (GE Healthcare Japan Corp.).
Specifically, when the amount of the GLS3000-containing antibody bound was defined as X and the amount of the L chain one-amino acid altered form bound was defined as Y, a value of Z (ratio of amounts bound)=Y/X was used.

Question: Which “ratio of amounts bound (altered form / unaltered GLS3000 antibody)” value does the source give for B4 here?
Answer: 0.48

Question: B5 was tested. Which “ratio of amounts bound (altered form / unaltered GLS3000 antibody)” value did it give?
Answer: 0.65

Question: For B6, which “ratio of amounts bound (altered form / unaltered GLS3000 antibody)” value is on record?
Answer: 1.13
